The values below come from patent publication US20140105889A1 (published 2014).

The target of assay [1] is T1, human FcγRIa (human, UniProt P12314 16-292, limits assumed).
T1 construct: also called FcgRIa; CD64
In words: SPR (Biacore), FcγR over captured antibody; binding amount / that of IL6R-BF648/IL6R-L x100.
T1 sequence (P12314 16-292 limits assumed): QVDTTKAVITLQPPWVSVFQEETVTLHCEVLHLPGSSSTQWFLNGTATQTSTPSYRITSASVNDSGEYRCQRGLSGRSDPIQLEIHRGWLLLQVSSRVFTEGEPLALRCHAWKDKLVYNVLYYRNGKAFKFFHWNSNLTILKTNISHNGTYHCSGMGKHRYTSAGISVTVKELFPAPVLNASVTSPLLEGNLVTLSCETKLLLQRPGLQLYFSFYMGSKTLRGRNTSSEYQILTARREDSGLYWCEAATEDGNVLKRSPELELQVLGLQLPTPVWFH
Description: (§1) According to the following method, relative binding activities were calculated for the results of analyzing interactions with the respective FcγRs.

For another assay, the target named is T2, human FcγRIIa type R (human, UniProt P12318 36-217).
T2 construct: also called FcgRIIaR; FcγRIIa(R)
T2 chain: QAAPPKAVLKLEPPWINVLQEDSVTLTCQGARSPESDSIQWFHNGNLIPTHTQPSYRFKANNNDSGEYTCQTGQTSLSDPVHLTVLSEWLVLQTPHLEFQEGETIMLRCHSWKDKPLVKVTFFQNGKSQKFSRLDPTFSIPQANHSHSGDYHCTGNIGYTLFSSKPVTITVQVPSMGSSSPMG
Described as above.

For assay [2], the target named is T3, human FcγRIIa type H (human, UniProt P12318 36-217).
T3 construct: also called FcgRIIaH; FcγRIIa(H)
T3 sequence: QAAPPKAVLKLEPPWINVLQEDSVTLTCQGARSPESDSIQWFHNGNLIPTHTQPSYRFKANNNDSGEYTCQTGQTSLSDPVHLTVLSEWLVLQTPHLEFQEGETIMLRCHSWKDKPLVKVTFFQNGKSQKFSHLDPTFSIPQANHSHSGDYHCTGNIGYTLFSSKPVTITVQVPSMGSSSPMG
The assay is described as above.
Description: as §1

Assay [3] deals with T4, human FcγRIIb (human, UniProt P31994 43-217).
T4 construct: also called FcgRIIb; FcγIIB
T4 sequence: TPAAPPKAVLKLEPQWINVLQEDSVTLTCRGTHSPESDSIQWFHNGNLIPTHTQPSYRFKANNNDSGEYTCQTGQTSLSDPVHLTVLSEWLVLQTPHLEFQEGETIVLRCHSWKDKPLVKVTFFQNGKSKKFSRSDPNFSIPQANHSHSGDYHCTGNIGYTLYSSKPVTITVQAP
Described as above.
Description: as §1

Another assay deals with T5, human FcγRIIIa type V (human, UniProt P08637 17-208, limits assumed).
T5 construct: Allotype V158 was used; also called FcgRIIIaV; FcγRIIIa(V)
T5 sequence (P08637 other isoform, or with tags, fused parts or gaps limits assumed): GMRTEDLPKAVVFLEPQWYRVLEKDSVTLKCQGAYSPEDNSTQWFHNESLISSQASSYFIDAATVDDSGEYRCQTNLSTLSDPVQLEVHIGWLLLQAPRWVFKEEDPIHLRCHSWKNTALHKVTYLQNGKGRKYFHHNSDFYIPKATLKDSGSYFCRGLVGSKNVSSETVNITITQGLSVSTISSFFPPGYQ
Described as above.

The target in assay [4] is T6, human FcγRIa (human, UniProt P12314 16-292, limits assumed).
T6 construct: also called FcgRIa; CD64
Description: SPR (Biacore); binding amount divided by that of control IL6R-BF648/IL6R-L, x100. (In general: SPR reads the build-up and loss of mass on a sensor chip optically.)
T6 sequence (P12314 16-292 limits assumed): as the sequence (P12314 16-292 limits assumed) above
Description: as §1

In assay [5] the target is T7, human FcγRIIa type H (human, UniProt P12318 36-217).
T7 construct: also called FcgRIIaH; FcγRIIa(H)
T7 sequence: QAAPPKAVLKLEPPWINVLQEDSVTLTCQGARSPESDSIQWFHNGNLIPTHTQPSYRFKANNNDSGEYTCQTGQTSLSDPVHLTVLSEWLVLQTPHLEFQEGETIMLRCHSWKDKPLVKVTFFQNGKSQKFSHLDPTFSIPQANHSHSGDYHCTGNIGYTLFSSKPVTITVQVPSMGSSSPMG
The assay is described as above.
Description: as §1

Assay [6] addresses T8, human FcγRIIb (human, UniProt P31994 43-217, limits assumed).
T8 construct: also called FcgRIIb; FcγIIB
T8 sequence: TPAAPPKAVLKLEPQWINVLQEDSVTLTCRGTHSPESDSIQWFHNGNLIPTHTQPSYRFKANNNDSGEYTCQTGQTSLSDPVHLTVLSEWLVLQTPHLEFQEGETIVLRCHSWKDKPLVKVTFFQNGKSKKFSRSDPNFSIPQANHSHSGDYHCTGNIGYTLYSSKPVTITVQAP
The description is as above.
Description: as §1

Description for human FcγRIIIa type V: as §1
Description for human FcγRIIa type R: as §1

B1: IL6R-BP185/IL6R-L (antibody, human IgG1)
heavy: QVQLQESGPGLVKPSETLSLTCAVSGHSISHDHAWSWVRQPPGEGLEWIGFISYSGITNYNPSLQGRVTISRDNSKNTLYLQMNSLRAEDTAVYYCARSLARTTAMDYWGEGTLVTVSSASTKGPSVFPLAPSSKSTSGGTAALGCLVKDYFPEPVTVSWNSGALTSGVHTFPAVLQSSGLYSLSSVVTVPSSSLGTQTYICNVNHKPSNTKVDKKVEPKSCDKTHTCPPCPAPDYLGDDSVFLFPPKPKDTLMISRTPEVTCVVVDVSHEDGEVKFNWYVDGVEVHNAKTKPREEQYNSTYRVVSVLTVLHQDWLNGKEYKCKVSNAALPKPIEKTISKAKGQPREPQVYTLPPSRDELTKNQVSLTCLVKGFYPSDIAVEWESNGQPENNYKTTPPVLDSDGSFFLYSKLTVDKSRWQQGNVFSCSVMHEALHNHYTQESLSLSP
light: DIQMTQSPSSLSASVGDRVTITCRASQDISSYLNWYQQKPGKAPKLLIYYTSRLHSGVPSRFSGSGSGTDFTFTISSLQPEDIATYYCQQGNTLPYTFGQGTKVEIK
For the molecule B1, the relative binding activity with human FcγRIa [1] was 47 % of IL6R-BF648/IL6R-L; in the assay with human FcγRIIa type R, 670 % of IL6R-BF648/IL6R-L; with human FcγRIIa type H [2], 446 % of IL6R-BF648/IL6R-L; with human FcγRIIb [3], 179 % of IL6R-BF648/IL6R-L; with human FcγRIIIa type V it was 191 % of IL6R-BF648/IL6R-L.

B2: IL6R-BP186/IL6R-L (antibody, human IgG1)
heavy: QVQLQESGPGLVKPSETLSLTCAVSGHSISHDHAWSWVRQPPGEGLEWIGFISYSGITNYNPSLQGRVTISRDNSKNTLYLQMNSLRAEDTAVYYCARSLARTTAMDYWGEGTLVTVSSASTKGPSVFPLAPSSKSTSGGTAALGCLVKDYFPEPVTVSWNSGALTSGVHTFPAVLQSSGLYSLSSVVTVPSSSLGTQTYICNVNHKPSNTKVDKKVEPKSCDKTHTCPPCPAPDYLGDDSVFLFPPKPKDTLMISRTPEVTCVVVDVSHEDGEVKFNWYVDGVEVHNAKTKPREEQDNSTYRVVSVLTVLHQDWLNGKEYKCKVSNAALPKPIEKTISKAKGQPREPQVYTLPPSRDELTKNQVSLTCLVKGFYPSDIAVEWESNGQPENNYKTTPPVLDSDGSFFLYSKLTVDKSRWQQGNVFSCSVMHEALHNHYTQESLSLSP
light: DIQMTQSPSSLSASVGDRVTITCRASQDISSYLNWYQQKPGKAPKLLIYYTSRLHSGVPSRFSGSGSGTDFTFTISSLQPEDIATYYCQQGNTLPYTFGQGTKVEIK
In the case of B2, the relative binding activity was 43 % of IL6R-BF648/IL6R-L with human FcγRIa [1]; 614 % of IL6R-BF648/IL6R-L in the assay with human FcγRIIa type R; 368 % of IL6R-BF648/IL6R-L with human FcγRIIa type H [2]; 175 % of IL6R-BF648/IL6R-L with human FcγRIIb [3]; 143 % of IL6R-BF648/IL6R-L with human FcγRIIIa type V.

B3: IL6R-BP193/IL6R-L (antibody, human IgG1)
heavy: QVQLQESGPGLVKPSETLSLTCAVSGHSISHDHAWSWVRQPPGEGLEWIGFISYSGITNYNPSLQGRVTISRDNSKNTLYLQMNSLRAEDTAVYYCARSLARTTAMDYWGEGTLVTVSSASTKGPSVFPLAPSSKSTSGGTAALGCLVKDYFPEPVTVSWNSGALTSGVHTFPAVLQSSGLYSLSSVVTVPSSSLGTQTYICNVNHKPSNTKVDKKVEPKSCDKTHTCPPCPAPDLLGGDSVFLFPPKPKDTLMISRTPEVTCVVVDVSDEDGEVKFNWYVDGVEVHNAKTKPREEQYNSTYRVVSVLTVLHQDWLNGKEYKCKVSNKALPKPIEKTISKAKGQPREPQVYTLPPSRDELTKNQVSLTCLVKGFYPSDIAVEWESNGQPENNYKTTPPVLDSDGSFFLYSKLTVDKSRWQQGNVFSCSVMHEALHNHYTQESLSLSP
light: DIQMTQSPSSLSASVGDRVTITCRASQDISSYLNWYQQKPGKAPKLLIYYTSRLHSGVPSRFSGSGSGTDFTFTISSLQPEDIATYYCQQGNTLPYTFGQGTKVEIK
notes: The common L chain is IL6R-L; copies: 2 + 2
Turning to B3, the results for the relative binding activity with human FcγRIa [4], in the assay with human FcγRIIa type H [5] and with human FcγRIIb [6] were 113 % of IL6R-BF648/IL6R-L, 154 % of IL6R-BF648/IL6R-L and 173 % of IL6R-BF648/IL6R-L, respectively.

B4: IL6R-BP188/IL6R-L (antibody, human IgG1)
heavy: QVQLQESGPGLVKPSETLSLTCAVSGHSISHDHAWSWVRQPPGEGLEWIGFISYSGITNYNPSLQGRVTISRDNSKNTLYLQMNSLRAEDTAVYYCARSLARTTAMDYWGEGTLVTVSSASTKGPSVFPLAPSSKSTSGGTAALGCLVKDYFPEPVTVSWNSGALTSGVHTFPAVLQSSGLYSLSSVVTVPSSSLGTQTYICNVNHKPSNTKVDKKVEPKSCDKTHTCPPCPAPDLLGDDSVFLFPPKPKDTLMISRTPEVTCVVVDVSDEDGEVKFNWYVDGVEVHNAKTKPREEQYNSTYRVVSVLTVLHQDWLNGKEYKCKVSNKALPKPIEKTISKAKGQPREPQVYTLPPSRDELTKNQVSLTCLVKGFYPSDIAVEWESNGQPENNYKTTPPVLDSDGSFFLYSKLTVDKSRWQQGNVFSCSVMHEALHNHYTQESLSLSP
light: DIQMTQSPSSLSASVGDRVTITCRASQDISSYLNWYQQKPGKAPKLLIYYTSRLHSGVPSRFSGSGSGTDFTFTISSLQPEDIATYYCQQGNTLPYTFGQGTKVEIK
notes: as for B3
For the molecule B4, the results for the relative binding activity in the assay with human FcγRIa [4] and with human FcγRIIb [6] were 74 % of IL6R-BF648/IL6R-L and 179 % of IL6R-BF648/IL6R-L, respectively.
